Assay: soluble on expression in E. coli; label from the status in PepcDB or PDB records

Sequence | soluble on expression in E. coli
MGSDKIHHHHHHMTDLADLTCVGPGTPMGTLMRQYWVPAAKSSELKRDGDPMRLMLLGEKLIAFRDSEGRVGVLDHRCPHRCASLFLGRNEESGIRCVYHGWKFDVAGRCVDMPSVPPHQDFKDKVHAKAFRTAERNGLVWVYMGDAAEPPPLPAIEANLVADCEIWCLQRDCNWLQALEGDIDTSHVGFLHVGSLKPDDLADDHPMRPTVLDRAPEYAVTNTAWGTMYGGYRPNDDGQRSWRVAHFMFPFWTQTPNNRFSSRAIARAWVPMDDEHSMLFDITCGVDEGNPAYSSTRKTGEPLFAPFEYAPATTDWFGRWRCVDDRRNDWGIDRELQRNGSQYTGIPNITMQDQAVTESMGPIIDHSYEHLAPTDQMIARTRRRLLLATQALSEQGTLPPGAQDSDVFFGARAGSFLCDPGLPFETAYATQLETATRWAGDKVVS | not soluble
GVWRQYASRALQELGAGKRAIHDVADLTRGSLRIAVTPTFTSYFIGPLMADFYARYPSITLQLQEMSQEKIEDMLCRDELDVGIAFAPVHSPELEAIPLLTESLALVVAQHHPLAVHEQVALSRLHDEKLVLLSAEFATREQIDHYCEKAGLHPQVVIEANSISAVLELIRRTSLSTLLPAAIATQHDGLKAISLAPPLLERTAVLLRRKNSWQTAAAKAFLHMALDKCAVVGGNESR | soluble
MSVHESSNEINDEPMDTDSNIPESSGNDPSMEVDDEPESSDAADSFKRFERLLQKTENFSHCLSSGDAKLATGAPVDTKKRGRPSKKNGIDGDHRHRKTEQEEDEEMVADAIKSDDLVIFDKSPFYIENGEMRDYQVRGLNWLASLQHNKINGILADEMGLGKTLQTISMIGYMKHYKNKASPHLVIVPKSTLQNWANEFKKWCPSINAVVLIGDEAARNQVLRDVILPQKFDVCCTTYEMMLKVKTQLKKLNWRYIIIDEAHRIKNEKSKLSETVRELNSENRLLITGTPLQNNLHELWALLNFLLPDIFTSSDDFDSWFSNDAMSGNTDLVQRLHKVLQPFLLRRIKSDVEKSLLPKKEVKVYVGLSKMQREWYTKVLMKDIDIINGAGKVEKARLMNILMHLRKCVNHPYLFDGAEPGPPFTTDQHLVDNSGKMVVLDKLLMKFKEQGSRVLIFSQFSRMLDLLEDFCWWRHYEYCRLDGSTPHEDRSNAIEAYNAPDSKKFIFMLTTRAGGLGINLATADVVIIYDSDWNPQSDLQAMDRAHRIGQKKQVRVFRLITENTVDERIIEKAEAKLRLDNIVIQQGRMSEAQKTLGKGDMISMIRHGAEQVFAAKDSTISDDDIDTILEKAEVKTAELNEKMGKIDENNLRNMTFEDNAKFTVYQFEGENYKAKQADGMGHFWIEPPKRERKANYQVDLYYKEAMRAGNPTEKQSKAPRPKLPQVFDFQFYPRRLFELLDKEIYHYRKTIGYVAERPKDVPPKEAEKRQAEEQKLINNARPLTDKEQEEKAELLTQSVTDWTKREFQQFVRGNEKYGREDLESIAKEMERPLEEIQSYAKVFWERIEELQDSEKVLSQIEKGEARIQRKYAVKKALDAKIAKYKAPFQQLRISYGTNKGKTYTEEEDRFLVCETHRLGHDKENVFEELRQSVRMAPQFRFDWFLKSRTAMELQRRCNTLITLIEREMGEVVESKPVIVTAADKKKSVAKDLSKSSGTPTAKKVKATPK | not soluble
MHITNRSHLADRYGKRTSAEFLLHERPILSFPISLAAIPKEARYLSWELIDYDTIPLIGFPFIHWLAANVPVTNEIPEDFSRTALKPTIQGKNSLASPLGKQMIPALATETLPELTERYLGLSPRSGVHTYTLYVYTTKNPLNLKEGFFANELHQALNDQLLAKAKFEFLY | not soluble
MAHHHHHHMGTLEAQTQGPGSMIFNVLTIFPQMFPGPLGVSNLGSALKKGLWTLNVFDIRAFANNKHNTVDDTPYGGGPGMLLRADVLGRCIDEVLSLHPNTKLMFTSPRGVSFTQDIARQTMNFDNITLLCGRFEGIDERVVDFYKLQEVSIGDYVLSGGELAAMVIIDTCVRMVPGVIGNAESLKQESMEGSLEYPQYTRPASWKGMEVPEVLLTGNHGEIEKWRRNASLSITAARRPDLLKDRYGENDVE | soluble
MEREQRHKVIMRTIDRPGITRIDALTELTGVSAVTIHRDLVELEQAGFLARTHGGAKRVPKRGTPQPFAVRQAEDREAKRILAQATAQLIADDEAVIFDNGTTCQAVAQELAGRPITALCLSLHSAVALGSRAGTNVFIPGGPVENDSLALSGPAVITALRDFSADVVILGSCSTSLEHGLATTTYDDAENKRAAIHAATRRILVVSARKLNHVSTFRFADVADLHQLVTTSDAPREILAEIRDLGVQVITVPAPDEQRSLEHHHHHH | soluble
MGSDKIHHHHHHMGEELPVSQPVDQRPLEHQDHCQAAEPAAMDPPAGEDFYEKDFITYLSDENEQEISRAFIVANPGMVKFHFVDKVYEQLALKDKQVDTAIYSEVLPDPPLSQAIKIAKQMKKFAPDTIIAIGGGSALDVSKIARYIYEYSLDQEDGWLDIYDNVSELIKELQQKFVDIRKRIVKFKHETRTSLVMTRSLKAPS | not soluble
MFNLQKRINGNNEDGRYLETRIAVRDKLLAQELQQLETALRDQKQKLWHLEVPSTSCLHELELTVTPQEGIYRGGKFRFKITVPPEYNNVPPVVKCLTKVWHPNINEDGSICLSILRQNSLDQYGWRPTRNLTDVVHGLVSLFNDLMDFNDALNIQAAQMWSQNRESFNHRVREYISRYC | soluble
MGSDKIHHHHHHMEHAQMSEKTTNELEKLREHIDSVDQQLLHLLRKRLDLVAQVGGVKHAAGVPIYAPQREASMLAKRREEAAKMNVSPQLIEDILRRLMRESYLNEKDVGFKQVKTDLGHVVIVGGQGKLGGLFAQMLSLSGYQVKSLDKDDWQQADAIFDGAGMVIVTVPISITCELIRDKLTSLPSSCILADLTSIKEKPLEAMLASHQGPVVGLHPMFGPDVGSLAKQVVVVCHGRGREQYEWLLEQIGIWGARLVEADAQQHDKAMQLVQAMRHFSSFVYGLNLYREAADIDNLLQFSSPIYRLELAMVGRLFAQSPELYADIIFAQQESLTAIGDYLDNYAQALELLKRGDRQGFIREFEEVAAWFGDFAPQFQRESRAMLQSVNDMKTG | not soluble
GPGSMWFNHRIRQRGLTPVLVNTLQKRLTCSLTRICLCDCKDASGREGVSSSTSGSVPSRMTSQNPPPRPPPTTPAATPGGVQYNTRRESEAVAIEQRRQQQQRATDAQRRGEEPLPEQSESEMARWWPEENQNWSGRMFASPLDKNKKKFDGMFVPEMKEVHGPDKPLELSYAGDNFFLNPDFHMADEVFDETRRFVPPPSFDPAVDEIDDEGFVDGQVMFDIQKAVDEDRRRLEAFGNPLLVEDQVDYLLQPQREGQENIQQRQEFNGFVHWGLLHGAHMIIEENQDYKKAHEFVNRYMRDIDLFQKWLEHPKVRAHIQKKFGVDMHAKFDKLMALVMAMYARSKIQVYEDDPAGALKSLTACMSFINEGADLKKERHRKAIGAVLAARGMVYCKLKSYDRAEDDLTRALRFVNQKRCATLFQLRAEAREALGRIEEARLDEERAAEIWENAEVIAPGMSGKPYKFVL | not soluble
SLSEVEIEEVRLNPDEPQYTMDGLDGRRFDEQGYLKEHLSSKGAKQFPESSDIHFDSPHLVFFQEGRLLYEVGSDEAVYHTENKQVLFKNNVVLTKTADGKRQAGKVEAEKLHVDTESQYAQTDTPVSFQYGASHGQAGGMTYDHKTGMLNFSSKVKATIYDTKDM | not soluble
MKFDPQKYRELAEKDFEAAWKAGKEILAERSPNELYPRVGFSFGKEHPLFATIQRLREAYLSIGFSEVVNPLIVEDVHVKKQFGREALAVLDRCFYLATLPKPNVGISAEKIRQIEAITKREVDSKPLQEIFHRYKKGEIDGDDLSYLIAEVLDVDDITAVKILDEVFPEFKELKPISSTLTLRSHMTTGWFITLSHIADKLPLPIKLFSIDRCFRREQGEDATRLYTYFSASCVLVDEELSVDDGKAVAEALLRQFGFENFRFRKDEKRSKYYIPDTQTEVFAFHPKLVGSSTKYSDGWIEIATFGIYSPTALAEYDIPYPVMNLGLGVERLAMILYGYDDVRKMVYPQIHGEIKLSDLDIAREIKVKEVPQTAVGLKIAQSIVETAEKHASEPSPCSFLAFEGEMMGRNVRVYVVNENENTKLCGPAYANEVVVYKGDIYGIPKTKKWRSFFEEGVPTGIRYIDGFAYYAARKVEEAAMREQEEVKVKARIVENLSDINLYIHENVRRYILWKKGKIDVRGPLFVTVKAEIE | soluble
SMQELFNNLMELCKDSQRKFFYSDDVSASGRTYRIFSYNYASYSDWLLPDALECRGIMFEMDGEKPVRIASRPMEKFFNLNENPFTMNIDLNDVDYILTKEDGSLVSTYLDGDEILFKSKGSIKSEQALMANGILMNINHHRLRDRLKELAEDGFTANFEFVAPTNRIVLAYQEMKIILLNVRENETGEYISYDDIYKDATLRPYLVERYEIDSPKWIEEAKNAENIEGYVAVMKDGSHFKIKSDWYVSLHSTKSSLDNPEKLFKTIIDGASDDLKAMYADDEYSYRKIEAFETTYLKYLDRALFLVLDCHNKHCGKDRKTYAMEAQGVAKGAGMDHLFGIIMSLYQGYDSQEKVMCEIEQNFLKNYKKFIPEGY | soluble
MAHHHHHHMRPLLVFGLRGTLLERIHASRVPSGMPGGAITVGMSRVWLRPSAMETLLALQQHCTLAVWSSTTARNTTPLMEAVFSQHAQKVNFAFVWSREHTTADEFRRVSATSRDDQHATVKDLREVYRRFPEIATPQNTVLIDDTPSKGKLNASNFLWLETCEELKIENPNVMPALRRFVEEHLLAEREDVRRLLPARVPWGQQ | not soluble
RAKKETTMTDVRIQALHFDATDQLKDFVQKKISKLNRLSDGITGAEVVLKLVKPETVQNKEASIRLYIPGDDLFAEKIADTFEEAIDLTVDALKRQIEKRKEQRK | not soluble
MGSDKIHHHHHHMKTKETPEQKPEDMPIPIVDITSVEQQTVSLNLPSYGVVTPKYKTQLVTEVQGRMLTISPQFVAGGIVKKGDQLAQIEPSDYEADLMQAEATLAQATAALNEEIARGEVAKIEFKGYDKGLPPELGLRIPQLKKEQANVKYAQAALARAQRNLERTIIRAPFDGIIKARNVDLGQYVTLGTNLGELYDTSIAEIRLPISNDDLAYLESVDNPDTQVTLSASLAGKENTWIGNIIRSEGVIDADNRMVYLVAEIKDPYLREHKTQGSLPLKYGSFVNAVIKGRTVDGIVKLPRHVVRNEHVALINDNNIVEMRHVNVVRSDLQNVFIKDSLKTGERVAITHFNNMANGQLVKVIGEETKPAQTPAPESSLAATGVK | not soluble
SQILDRKGRLIANIYDKEFRFYARFEEIPPRFIESLLAVEDTLFFEHGGINLDAIMRAMIKNAKSGRYTEGGSTLTQQFVKNMVLTREKTLTRKLKEAIISIRIEKVLSKEEILERYLNQTFFGHGYYGVKTASLGYFKKPLDKLTLKEITMLVALPRAPSFYDPTKNL | not soluble
DIQMTQTTSSLSASLGDRVTISCSASQDISSYLNWYQQKPEGTVKLLIYYTSSLHSGVPSAFSGSGSGTDYSLTISNLEPEDFATYYCQQYSKFPWTFGGGTKLEIKRADAAPTVSIFPPSSEQLTSGGASVVCFLNNFYPKDINVAWAIDGSAAANGVLNSWTDQDSKDSTYSMSSTLTLTADAYEAANSYTCAATHKTSTSPIVKSFNANEC | soluble
